Consider 1 substance from publication PMC2652359.

The target of the test is human factor Xa (human). Nature of the test: functional titration of prothrombinase activity.
human factor Xa (human), sequence (P00742 whole entry): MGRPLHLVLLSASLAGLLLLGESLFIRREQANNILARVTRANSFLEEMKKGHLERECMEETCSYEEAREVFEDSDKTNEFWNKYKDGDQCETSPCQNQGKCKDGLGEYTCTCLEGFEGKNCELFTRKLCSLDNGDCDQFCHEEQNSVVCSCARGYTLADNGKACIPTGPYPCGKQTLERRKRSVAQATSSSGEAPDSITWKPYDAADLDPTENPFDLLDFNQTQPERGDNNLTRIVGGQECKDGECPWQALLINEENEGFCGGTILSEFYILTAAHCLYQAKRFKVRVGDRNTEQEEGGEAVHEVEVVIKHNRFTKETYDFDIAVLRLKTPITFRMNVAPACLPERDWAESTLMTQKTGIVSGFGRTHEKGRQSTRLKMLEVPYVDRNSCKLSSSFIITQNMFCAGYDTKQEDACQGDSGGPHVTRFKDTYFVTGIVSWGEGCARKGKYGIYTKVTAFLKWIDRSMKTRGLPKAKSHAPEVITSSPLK

In the case of “recombinant wild-type human factor Va (from UniProt P12259 29-737; P12259 1574-2224) (natural protein)”, the Kd turned out to be 0.24 nM.

As a reminder, the Kd is the equilibrium constant for the complex coming apart.
